From PMC12205649 come the findings set out here.

A word on the stoichiometry N: it is the number of molecules, sites or subunits per partner or assembly. The Kd is the concentration at which binding is half-saturated. By koff is commonly meant a measure of how fast the partners let go of each other. A high value points to a short-lived complex.

In one test the target is E. coli CsgC (E. coli) (UniProt P52107).
Test [1] concerns the target E. coli CsgA, freshly purified monomer (E. coli) (UniProt P28307). The test is described as follows: native MS; ion mobility-mass spectrometry (nESI, Synapt G2); CsgA and CsgC each diluted to 20 μM and mixed 1:1 in 20 mM ammonium acetate pH 7.4, incubated at 37 °C, time points 0, 3, 6 and 23 h.
Test [2] has as its target E. coli CsgA fibrils (sonicated amyloid fibres of WT CsgA) (E. coli) (UniProt P28307). As to the kind of experiment: SPR; BIAcore 3000, CM5 chip; sonicated CsgA fibrils amine-coupled at 1300 RU; gel-filtered CsgC injected 5 min at 4 to 0.25 μM (two-fold dilutions); phosphate buffer pH 7.5, 0.05% Tween, 25 °C; fitted with Scrubber2. In general terms: In SPR one partner is held on a chip, and binding of the other changes the refractive index at the surface.

Test [3] concerns the target T1, E. coli CsgC (E. coli), P52107.
T1 chain: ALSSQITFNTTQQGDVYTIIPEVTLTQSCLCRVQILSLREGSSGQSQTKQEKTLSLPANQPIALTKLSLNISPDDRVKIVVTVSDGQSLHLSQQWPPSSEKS
The test is described as follows: native MS; ion mobility-mass spectrometry (nESI, Synapt G2); CsgA and CsgC each diluted to 20 μM and mixed 1:1 in 20 mM ammonium acetate pH 7.4, incubated at 37 °C, time points 0, 3, 6 and 23 h. Conditions: remark: other sources report otherwise.

Consider “E. coli CsgA, freshly purified monomer (from UniProt P28307 21-151) (natural protein)”, for which, in the test with E. coli CsgC (E. coli), the ThT binding assay: increase in lag time of CsgA eluted from the CsgC-linked column compared with CsgA eluted from the Tris-quenched column was 51 min and the ThT binding assay: increase in time to half maximum ThT fluorescence of CsgA eluted from the CsgC-linked column compared with CsgA eluted from the Tris-quenched column amounted to 52 min.

In turn, “E. coli CsgC (from UniProt P52107 9-110) (natural protein)” returned a stoichiometry N in test [1] of 1. In addition, in test [2], the equilibrium dissociation constant (Kd) came out at 360 nM and the koff came to 0.00118 s⁻¹.

B1: E. coli CsgC, P52107 9-110 (natural protein)
chain: ALSSQITFNTTQQGDVYTIIPEVTLTQSCLCRVQILSLREGSSGQSQTKQEKTLSLPANQPIALTKLSLNISPDDRVKIVVTVSDGQSLHLSQQWPPSSEKS
In the case of B1, the stoichiometry N in test [3] came to 2.
